Measured values published in patent publication US7893197B2, “Relaxin-3 chimeric polypeptides and their preparation and use” (Janssen Pharmaceutica N.V., priority 2005, dated 2011).

Target: T1, LGR7 (Homo sapiens, UniProt Q9HBX9)
T1 construct: Human LGR7 cDNA containing the complete coding region was PCR amplified; expressed in transfected cells
T1 sequence (Q9HBX9 1-757): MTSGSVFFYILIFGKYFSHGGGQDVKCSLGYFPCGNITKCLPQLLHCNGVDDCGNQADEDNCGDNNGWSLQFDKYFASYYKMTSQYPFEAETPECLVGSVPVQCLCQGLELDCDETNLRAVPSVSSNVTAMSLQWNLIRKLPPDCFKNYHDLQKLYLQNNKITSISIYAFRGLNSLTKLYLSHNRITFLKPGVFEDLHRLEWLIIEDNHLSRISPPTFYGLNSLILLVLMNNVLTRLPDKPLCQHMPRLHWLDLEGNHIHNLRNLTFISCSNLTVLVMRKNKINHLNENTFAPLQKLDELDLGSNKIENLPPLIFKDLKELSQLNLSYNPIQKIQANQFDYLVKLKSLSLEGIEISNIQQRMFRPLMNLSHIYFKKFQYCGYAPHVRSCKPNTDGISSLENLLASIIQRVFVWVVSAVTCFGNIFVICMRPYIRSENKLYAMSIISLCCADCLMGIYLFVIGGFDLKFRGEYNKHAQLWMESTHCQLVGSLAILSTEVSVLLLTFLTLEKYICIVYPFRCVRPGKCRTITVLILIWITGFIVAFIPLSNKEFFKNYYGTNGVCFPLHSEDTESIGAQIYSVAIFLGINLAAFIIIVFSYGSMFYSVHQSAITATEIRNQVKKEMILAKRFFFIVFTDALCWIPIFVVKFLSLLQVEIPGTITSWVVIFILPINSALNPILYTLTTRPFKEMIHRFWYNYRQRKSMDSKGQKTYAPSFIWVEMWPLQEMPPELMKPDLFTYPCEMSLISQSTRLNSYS
Experiment: Stimulation of β-galactosidase expression in SK-N-MC/β-gal cells
Assay type: cell-based
Method: FIGS. 1A-1D show the activation of GPCR135 and GPCR142 by relaxin-3 B-chain, but not of LGR7 or LGR8. In FIG. 1A, SK-N-MC/β-gal cells expressing human GPCR135 were stimulated with relaxin-3, relaxin-3 B-chain, porcine relaxin, or INSL3 at various concentrations to inhibit the forskolin stimulated β-galactosidase expression. Forskolin was added to cells at a final concentration of 5 μM to stimulate the β-galactosidase expression. FIG. 1B depicts results for SK-N-MC/β-gal cells expressing human GPCR142 stimulated as in FIG. 1A. In FIG. 1C, SK-N-MC/β-gal cells expressing human LGR7 were stimulated with relaxin-3, relaxin-3 B-chain, porcine relaxin, and INSL3 at various concentrations to induce the β-galactosidase expression. The intracellular β-galactosidase activities were measured by a colorimetric assay using CRGP as the substrate and reading the absorbance at a wavelength of 570 nm. For FIG. 1D, SK-N-MC/β-gal cells expressing human LGR8 were stimulated as in FIG. 1C.
FIGS. 4A-4D illustrate the evaluation of the agonist activity of relaxin-3 chimeric polypeptides in biofunctional assays. Different chimeric polypeptides at various concentrations were added to SK-N-MC/β-gal cells expressing human GPCR135 (FIG. 4A) or GPCR142 (FIG. 4B) to inhibit forskolin stimulated β-galactosidase expression. Human relaxin-3 was used as the positive control. In parallel, chimeric polypeptides at various concentrations were added to SK-N-MC/β-gal cells expressing human LGR7 (FIG. 4C) and LGR8 (FIG. 4D) to stimulate β-galactosidase expression. Relaxin-3 and INSL3 were used as positive controls for LGR7 and LGR8, respectively. Intracellular β-galactosidase activity was measured by a colorimetric assay using CRGP as the substrate and reading the absorbance at wavelength of 570 nm. Data represent mean±SEM (n=3).
It has been shown that synthetic human relaxin-3 B-chain alone, but not A-chain, is an agonist for both GPCR135 and GPCR142 (Liu et al., 2003, Journal of Biological Chemistry, 278:50754-50764 and Liu et al., 2003, Journal of Biological Chemistry, 278:50765-50770). Those studies were repeated herein in SK-N-MC/β-gal cells, which harbor a β-galactosidase gene under the control of a cAMP responsive element (CRE) (Liu et al., 2001, Molecular Pharmacology, 59:420-426). In such SK-N-MC/β-gal cells, an increase in intracellular cAMP concentration leads to increased β-galactosidase gene expression, the activity of which is measured using Chlorophenol Red-β-D-Galactopyranoside (CPRG) as the substrate.
The inventive chimeric polypeptides were each independently tested for their ability to activate either GPCR135, GPCR142, LGR7, or LGR8, respectively, in separate pools of SK-N-MC/β-gal cells (see supra), each pool stably expressing one of the respective receptors, as indicated (FIG. 4).
Cells were seeded in 96-well tissue culture plate at a density of 30,000 cells/well in MEM plus 10% fetal serum, sodium pyruvate, penicillin, streptomycin, and G418 (400 mg/L). For cells expressing GPCR135 or GPCR142, forskolin was added to cells at a final concentration of 5 μM to stimulate intracellular cAMP accumulation. Different concentrations of each of the inventive polypeptides were then added to the cells to inhibit the forskolin induced cAMP accumulation. For cells expressing LGR7 or LGR8, intracellular cAMP was stimulated with each of the inventive chimeric polypeptides at various concentrations.
For all cells, after adding the chimeric polypeptides, cells were incubated for 6 additional hours in 37° C. incubator. The media was then aspirated and the β-galactosidase activities measured as previously described (Liu et al., 2001, Molecular Pharmacology, 59:420-426). The results were analyzed by Prism 3.0 software. […]

R3/I4: chimeric polypeptide: human relaxin-3 B-chain and INSL4 A-chain; mature polypeptide SEQ ID NO:22 (RAAPYGVRLCGREFIRAVIFTCGGSRWFDPFCCEVICDDGTSVKLC; Human Relaxin-3/Insulin-like 4 chimeric mature polypeptide)
activation of LGR7, in words: no activity
